Experimental data: patent US20170240920A1

Target: RQR8
Assay: cell-based or functional assay

“clinical grade human-rituximab (antibody)” was tested, and the eGFP positive cells in the sorted fraction (K562 cells, human rituximab on protein-A beads) was 89.4%, the transduced target cells with LV sorted with beads (RDpro pseudotyped LV) was 14.1% and the transduced target cells with the purified fraction (VSV-G pseudotyped LV) was 73.6%.
